These results are taken from paper PMC5693923 (2017).

This assay deals with TLR4 extracellular domain 24-631 (Homo sapiens, UniProt O00206). Put plainly: solid phase binding assay.

What is called Kd is the concentration at which binding is half-saturated.

Chain of TLR4 extracellular domain 24-631 (O00206 24-631): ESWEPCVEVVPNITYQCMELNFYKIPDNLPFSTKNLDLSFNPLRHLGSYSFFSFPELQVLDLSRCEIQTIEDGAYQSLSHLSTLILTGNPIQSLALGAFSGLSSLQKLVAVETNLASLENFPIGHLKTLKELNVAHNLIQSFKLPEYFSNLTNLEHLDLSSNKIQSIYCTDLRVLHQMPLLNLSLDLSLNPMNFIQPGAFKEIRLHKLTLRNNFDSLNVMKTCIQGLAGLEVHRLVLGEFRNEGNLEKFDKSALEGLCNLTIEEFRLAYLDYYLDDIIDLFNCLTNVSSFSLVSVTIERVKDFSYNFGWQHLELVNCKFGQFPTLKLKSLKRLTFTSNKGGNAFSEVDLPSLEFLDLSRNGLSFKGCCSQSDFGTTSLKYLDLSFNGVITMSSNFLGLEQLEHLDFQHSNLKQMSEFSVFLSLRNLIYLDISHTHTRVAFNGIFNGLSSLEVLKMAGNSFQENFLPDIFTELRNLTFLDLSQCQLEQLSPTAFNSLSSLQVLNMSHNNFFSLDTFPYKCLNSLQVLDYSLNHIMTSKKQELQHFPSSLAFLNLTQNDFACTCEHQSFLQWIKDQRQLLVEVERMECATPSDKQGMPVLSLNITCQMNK

B1: Tenascin-W FBG domain (FBG-W) 1060-1300 (protein)
chain: VGARFPHPSDCSQVQQNSNAASGLYTIYLHGDASRPLQVYCDMETDGGGWIVFQRRNTGQLDFFKRWRSYVEGFGDPMKEFWLGLDKLHNLTTGTPARYEVRVDLQTANESAYAIYDFFQVASSKERYKLTVGKYRGTAGDALTYHNGWKFTTFDRDNDIALSNCALTHHGGWWYKNCHLANPNGRYGETKHSEGVNWEPWKGHEFSIPYVELKIRPHGYSREPVLGRKKRTLRGRLRTF
B1 gave a Kd of roughly 55 nM.

B2: Tenascin-R FBG domain (FBG-R) 1128-1359 (protein)
chain: GGRVFPHPQDCAQHLMNGDTLSGVYPIFLNGELSQKLQVYCDMTTDGGGWIVFQRRQNGQTDFFRKWADYRVGFGNVEDEFWLGLDNIHRITSQGRYELRVDMRDGQEAAFASYDRFSVEDSRNLYKLRIGSYNGTAGDSLSYHQGRPFSTEDRDNDVAVTNCAMSYKGAWWYKNCHRTNLNGKYGESRHSQGINWYHWKGHEFSIPFVEMKMRPYNHRLMAGRKRQSLQF
For B2, the dissociation constant (Kd) was roughly 55 nM.
